According to paper PMC11953334, “Substrates bind to residues lining the ring of asymmetrically engaged bacterial proteasome activator Bpa” (Nature Communications, 2025):

Key:
[1] = molecular target: full-length 20S proteasome core particle, β-subunit T1A inactive variant (M. tuberculosis H37Rv) (UniProt P9WHU1); assay: negative stain EM
[2] = molecular target: full-length 20S proteasome core particle, β-subunit T1A inactive variant (M. tuberculosis H37Rv) (UniProt P9WHU1); assay: cryo-EM structure

Substance	percent of proteasomes doubly capped [1]	percent of proteasomes not associated with Bpa [1]	percent of core particles capped by Bpa on both ends [2]	percent of proteasomes singly capped [1]	percent of proteasomes uncapped [1]
bacterial proteasome activator Bpa, full-length, wild-type (from UniProt P9WKX3 1-174) (natural protein)	> 80%	< 1%	> 90%		
covalent dimer of C-terminally truncated Bpa and full-length Bpa (BpaΔC-Bpa) (from UniProt P9WKX3)				27%	73%
